This passage reports EC50 results from patent US20260274983A1 (MODERNATX, published 2026).

Assay [1] addresses T1, CD38 (UniProt P28907 1-300, limits assumed).
T1 construct: whole, on cells; also called CD38 on RPMI8226 cells; CD38 on H929 cells
T1 sequence (looked up): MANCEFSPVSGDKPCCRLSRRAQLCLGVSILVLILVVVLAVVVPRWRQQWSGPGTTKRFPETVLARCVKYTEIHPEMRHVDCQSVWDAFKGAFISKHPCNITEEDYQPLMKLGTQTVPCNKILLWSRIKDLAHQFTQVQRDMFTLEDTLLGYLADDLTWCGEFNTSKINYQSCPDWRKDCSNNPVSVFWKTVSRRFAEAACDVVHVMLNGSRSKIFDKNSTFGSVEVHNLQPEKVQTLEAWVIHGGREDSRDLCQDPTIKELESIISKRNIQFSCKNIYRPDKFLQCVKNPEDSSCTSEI
The assay is described as follows: FACS on RPMI8226 cells, VHH-His.

Assay [2] addresses T1, CD38. The assay is described as follows: FACS on H929 cells, VHH-His.
The target in assay [3] is T2, human BCMA (human, UniProt Q02223 1-184).
T2 construct: whole, on cells; Human is stated only for CHO-HuBCMA; also called HuBCMA; B-cell maturation antigen
T2 sequence (looked up): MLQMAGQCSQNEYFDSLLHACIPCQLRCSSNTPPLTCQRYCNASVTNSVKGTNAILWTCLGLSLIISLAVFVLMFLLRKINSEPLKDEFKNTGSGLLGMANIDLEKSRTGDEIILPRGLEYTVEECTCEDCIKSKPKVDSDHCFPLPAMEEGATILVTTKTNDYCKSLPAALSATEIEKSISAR
The assay is described as follows: FACS on H929 cells, Fc formatted.

The target of assay [4] is T2, human BCMA. The assay is described as follows: FACS on CHO-HuBCMA cells, Fc formatted.
Assay [5] addresses T3, human GPRC5D (human, UniProt Q9NZD1 1-345).
T3 construct: whole, on cells; Human is stated only for CHO-HuGPRC5D; also called HuGPRC5D; GPRC5D on CHO-HuGPRC5D cells
The assay is described as follows: FACS on CHO-HuGPRC5D cells, VHH-His.

For assay [6], the target named is T3, human GPRC5D. The assay is described as follows: FACS on H929 cells, VHH-His.
Assay [7] has as its target T3, human GPRC5D. The assay is described as follows: FACS on CHO-HuGPRC5D cells.

T3 sequence (Q9NZD1 whole entry): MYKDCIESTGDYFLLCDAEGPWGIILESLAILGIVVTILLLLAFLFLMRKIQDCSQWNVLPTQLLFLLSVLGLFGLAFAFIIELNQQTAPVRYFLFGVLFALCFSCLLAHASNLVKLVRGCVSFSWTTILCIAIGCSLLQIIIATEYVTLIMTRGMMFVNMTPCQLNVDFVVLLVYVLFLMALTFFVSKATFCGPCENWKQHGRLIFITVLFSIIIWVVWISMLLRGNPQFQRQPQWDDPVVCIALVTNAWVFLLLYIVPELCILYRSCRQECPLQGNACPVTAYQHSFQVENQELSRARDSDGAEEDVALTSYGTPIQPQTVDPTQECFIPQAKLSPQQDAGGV

B1: CD38-VHH8 (VHH)
VHH: QVQLVESGGGLVQAGGSLRLSCAASGSSVSMNSMAWYRQAPGKQRELVALITPGDRINYADFVKGRFTISRDNAKNTVNLQMNNLKPEDTAVYYCNIGATRPPFGAWGQGTQVTVSS
Turning to B1, the values for the EC50 with CD38 [1] and with CD38 [2] were 0.45 nM and 2.06 nM, respectively.

B2: BCMA-VHH3 (Fc fusion)
chain: QVQLVESGGGLVQAGGSLRLSCAASGSIFAYHVMGWYRQAPGKQRELVALITSGGSTNYTDSVKGRFTISRDNAKNTVYLQMNSLKPEDTAVYYCAIGYYSGSYYWERSGDYWGQGTQVTVSS
notes: not shown: Fc of the Fc formatted construct
B2: a half-maximal effect with human BCMA [3] (EC50) was put at 11 nM.

B3: CD38-VHH12 (VHH)
VHH: QVQLVESGGGLVQAGGSLRLSCVASGIIFRIFSMGWYRQAPGKQRELVATITSGGNTNYAHSVKGRFTISRDDAKNTVNLQMNSLKPEDTAVYYCNVAIPSGIVDRSAWGQGTQVTVSS
For the molecule B3, the EC50 (as a rule, the concentration giving half of the maximal effect) amounted to 10.5 nM in the assay with CD38 [1] and 25.7 nM in the assay with CD38 [2].

B4: CD38-VHH3 (VHH)
VHH: QVQLVESGGGLVQAGGSLTLSCAASRSIFEINTMTMGWYRQAPGKQRELIAASRGATTNYADSVKGRFTISRDNAKNTVYLQMNSLKPEDTAVYYCSADRYGFGYGDNDYWGQGTQVTVSS
Consider B4, for which the figures for the EC50 with CD38 [1] and in the assay with CD38 [2] were 0.35 nM and 1.36 nM, respectively.

B5: BCMA-VHH18 (Fc fusion)
chain: PVQLVESGGGLVQAGGSLRLSCAASGRTFSSYAMGWFRQAPGKEREFVAGVSWTGDNTGYADSVKGRFTISRDNFKSTVYLEMNSLKPEDTAVYFCAAWNWGHHEYTYWGRGTQVTVSS
notes: as for B2
Regarding B5, the EC50 in the assay with human BCMA [4] is 1020 nM.

B6: GPRC5D-VHH1 (VHH)
VHH: SVQLVESEGGLVQAGGSLRLSCVASGRTVSSYAMGWFRQAPGKEREFVAAISWSGRSTYYADSMKGRFTISRDNAKNTVYLQMNNLRPEDTAVYYCATSRAVIPGRDWNYYEYSGQGTQVTVSS
As for B6, the EC50 in the assay with human GPRC5D [5] amounted to 2.52 nM; in the assay with human GPRC5D [6], 13.2 nM.

B7: GPRC5D-VHH1-H7 (VHH)
VHH: QVQLVESGGGLVQPGGSLRLSCAASGRTVSSYAMGWFRQAPGKEREFVSAISWSGRSTYYADSMKGRFTISRDNAKNTLYLQMNSLRAEDTAVYYCATSRAVIPGRDWNYYEYWGQGTLVTVSS
notes: Humanized variant of GPRC5D-VHH1
Molecule B7 yielded an EC50 with human GPRC5D [7] of 4.44 nM.

B8: BCMA-VHH13 (Fc fusion)
chain: QVQLVDSGGRLVQAGDSLRLSCSASGFTFGSYWMFWVRQAPGKGLEWVSAIDTSGGHVYYGDSVNGRFTISRDNAKNTLYLQMNSLKPEDTALYYCARVENTWESIYWGQGTTVTVSS
notes: as for B2
Regarding B8, the EC50 in the assay with human BCMA [3] was found to be 15.5 nM.

B9: BCMA-VHH2 (Fc fusion)
chain: HVQLVESGGGLVQTGGSLRLSCAASGRTLNNYVVAWFRQAPGKEREFVATMWWSGGSPWYSDNVKGRFTISRDNAKNTLYLQMNSLRPEDTAVYYCAATWVGTSEYRHWGQGTQVTVSS
notes: as for B2
The molecule B9 registered an EC50 with human BCMA [4] of 0.8 nM.

B10: BCMA-VHH4 (Fc fusion)
chain: QVKLEESGGGLVQTGGSLRLSCAASGRTLNNYVVAWFRQAPGKEREFVATMWWSGGSPWYSDNVKGRFTISRDNAKNTLYLQMNSLRPEDTAVYYCAATWVGTSEYQHWGQGTQVTVSS
notes: as for B2
B10 came in with an EC50 in the assay with human BCMA [4] of 0.57 nM.

B11: CD38-VHH5 (VHH)
VHH: QVQLVESGGGLVQTGGSLRLSCVASGAIVSAESMGWYRQAPGNQRELVAEIISGSKSNYGESVKGRFTISRDNAENTVYLQMNSVKPEDTAVYYCKRTERIWTNNPQVYWGQGTQVTVSS
Take B11: the EC50 with CD38 [1] is 71.3 nM.

B12: BCMA-VHH11 (Fc fusion)
chain: QVQLVDSGGGLVQPGGSLRLSCAASGFTFSSYWMYWVRQAPGKGLEWVSAINTDGDSTYYADSVKGRFTVSRDVAGNMIYLQMTNLKPEDTAVYTCAAIVTRSDGHQYDYWGRGTQVTVSV
notes: as for B2
Consider B12, for which the EC50 with human BCMA [3] was 45.9 nM.

B13: BCMA-VHH1 (Fc fusion)
chain: AVQLVDSGGGLVTAGDSLTLSCVASGRTLSPYTAGWFRQAPGREREFVALITARGDWTSYSDSVKGRFTISRDNAKNTIYLQMNSLEPEDTALYYCVRDLLGRDDYWGQGTQVTVSS
notes: as for B2
Take B13: in the assay with human BCMA [3], the EC50 stood at 78 nM.

B14: BCMA-VHH7 (Fc fusion)
chain: EVQLVDSGGGLVQAGGSLRLSCAASGSTFSRYAMGWIRQAPGKEREFVAAISWSGGSTYYADSVKGRFTISRDVAKNTVSLQMNSLKPEDAGVYFCFGDIIRSGERSDYEYWGQGTRVTVTS
notes: as for B2
In the assay with human BCMA [3], B14 had an EC50 of 268 nM.

B15: BCMA-VHH9 (Fc fusion)
chain: QVKLEESGGGFVQPGGSLRLSCAASGFTYSSYWMHWVRQAPGKGLEWVSGISTGGDTTDTYYADSVKGRFTISRDNAKNTLYLQMNSLKPEDTAVYYCVALNLWGTDLEHDYWGRGTQVTVSS
notes: as for B2
For the molecule B15, in the assay with human BCMA [3], the EC50 stood at 43.4 nM.

B16: CD38-VHH7 (VHH)
VHH: QVQLVESGGGLVHTGGSLRLSCAASGSISGLNTMGWYRQAPGKQRELVATIISGTMTRYADSVKGRFTISKDNAKNTVYLQMNSLKPEDTAVYYCTFKEITRDSRSYWGQGTQVTVSS
With B16, the EC50 with CD38 [1] was 1.91 nM; with CD38 [2] it was 3.55 nM.

B17: BCMA-VHH17 (Fc fusion)
chain: QVQLVESGGGLVQAGGSLRLSCAASGRTFSGYTMAWFRQAPGSEREFVAAAVGSDGSTYYVDSVKGRFTMSRDSAKNTVYLMMTSLQPVDSAVYFCVKLDSGAWSLAEWGQGTQVTVSS
notes: as for B2
Take B17: in the assay with human BCMA [3], the EC50 worked out at 1.01 nM.

B18: CD38-VHH9 (VHH)
VHH: QVQLVESGGGLVQAGGSLRLSCVASGFIYSISTMGWYRQAPGKQRELVATITSGGNTNYADSVKGRFTISRDNAQNTVYLQMNNLKPEDTAIYYCNTAWRETIVSRVWGQGTQVTVSS
Turning to B18, the figures for the EC50 with CD38 [1] and with CD38 [2] were 0.51 nM and 2.62 nM, respectively.

B19: BCMA-VHH20 (Fc fusion)
chain: QVQLVESGGGLVQPGGSLRLSCAASGFTFSNYAMIWVRQAPGKGLEWVSSINANSDTTAYSDSVKGRFAISRDNARNTLYLQMNSLKPEDTAVYFCVSDSYIGGLYATYVYWGQGTQVTVSS
notes: as for B2
B19 came in with an EC50 with human BCMA [3] of 83.4 nM.

B20: CD38-VHH2 (VHH)
VHH: QVQLVESGGGLVQPGGSLRLSCAASGFIFSDKVMSWVRQAPGKGREWVSTITPGGTATSYTESVKGRFTISRDNAKNTLYLQMNNLKPDDTALYYCRIGGPGGRYDNWGQGTQVTVSS
With B20, the EC50 with CD38 [1] was determined as 1.01 nM; with CD38 [2], 6.14 nM.

B21: BCMA-VHH8 (Fc fusion)
chain: QVQLVQSGGGLVLPGGSLRLSCAASGFTLSSYWMHWLRQAPGKGLEWVSAIKPESGITYYAESMKGRFTISRDNAKNTLYLQMNSLKSEDSALYYCVREDYDSAYVGDYWGKGTQVTVSS
notes: as for B2
In the case of B21, in the assay with human BCMA [4], the EC50 came out at 170 nM.

B22: CD38-VHH1 (VHH)
VHH: QVQLVESGGGLVQPGDSLRLSCAASGFILDTYSVAWFRQAPGKEREGVSCISSRDGNTFYSDSVKGRFTISRDNAKNTVYLQMNSLKSEDTAVYTCAAGAQAHCTIFTSYFNSDYYRRYNYWGQGTQVTVSS
In the case of B22, the results for the EC50 in the assay with CD38 [1] and in the assay with CD38 [2] were under 1 nM and 4.43 nM, respectively.

B23: BCMA-VHH16 (Fc fusion)
chain: QVKLEESGGGLVQAGGSLRLSCAASGHTFSNSAMGWIRQAPGKEREFVAAISLNGGNTHYAESVKGRFAISRDNAKNTMYLQMNSLKPEDTAVYYCATLGFASWGQGTQVTVSS
notes: as for B2
B23 displayed a concentration for a half-maximal effect (EC50) with human BCMA [3] of 41.8 nM.

B24: GPRC5D-VHH2 (VHH)
VHH: QVQLVESGGGLVQAGGSLRLSCAASGRTASAYVMGWFRQAPGKERDFVAGISGGAYYADSVKGRFTIARDNAKNTVYLQMNSLKPEDTAVYYCAAERGMRRLTESYQYDYWGQGTQVTVSS
As to B24, the EC50 in the assay with human GPRC5D [5] worked out at 0.68 nM; in the assay with human GPRC5D [6] it was 0.23 nM.

B25: CD38-VHH6 (VHH)
VHH: QVQLVESGGGLVQAGGSLRLSCAASGTFSSINLMGYYRQAPGKQREFVARDYTEGTTDYADSVKGRFTISRDNTKKTVFLQMNNLKPEDTAIYYCWLMVRAGDVYWGQGTQVTVSS
Regarding B25, the EC50 in the assay with CD38 [1] turned out to be 28.4 nM; with CD38 [2] it was 101 nM.

B26: BCMA-VHH15 (Fc fusion)
chain: QVQLVESGGGLVQPGGSLRLSCAASGFTFSTYSMYWVRQAPGKGLEWVSAIDARGVNTYYADSVRGRFTVSRDNAKNTLYLQMNNLKLEDTALYYCGGWEFATWGRGTQVTVSS
notes: as for B2
For the molecule B26, the EC50 with human BCMA [4] stood at 1.76 nM.
